Results on 15 molecules are retold here after article PMC7891125 (Cell, 2021).

Test [1] has as its target T1, His-tagged SARS-CoV-2 RBD (Severe acute respiratory syndrome …, UniProt P0DTC2). The test is described as follows: BLI; competition assay, Octet RED96e, His-tagged RBD on Anti-HIS (HIS2) biosensors, saturating antibody 15 ug/ml then competing IgG 5 ug/ml; 10 mM HEPES pH 7.4, 150 mM NaCl. The following applies: both partners purified.
Test [2] addresses His-tagged RBD for structural analysis (SARS-CoV-2 Wuhan-Hu-1 (MN908947), UniProt P0DTC2, treated with endoglycosidase H1; 'glycosylated RBD' was used for the complex with Fab S309 and Fab384). Kind of test: crystal structure. The following applies: both partners purified.
The target in test [3] is T1, His-tagged SARS-CoV-2 RBD. Kind of test: BLI. The following applies: both partners purified.
The target in test [4] is T2, SARS-CoV-2 spike on intact virus (SARS-CoV-2/human/AUS/VIC01/2020) (SARS-CoV-2, isolate human/AUS/VIC01/2020). The test is described as follows: cell-based or functional assay.
Test [5] has as its target T2, SARS-CoV-2 spike on intact virus …. The test is described as follows: ELISA; whole virus ELISA: SARS-CoV-2 virus captured on plates coated with mouse anti-spike mAb31, serial dilutions of IgG or Fab, ALP anti-human IgG (Fab-specific); Kd = concentration at half-maximal binding by nonlinear regression. The following applies: one partner purified.
The target of test [6] is His-tagged SARS-CoV-2 RBD (SARS-CoV-2 Wuhan-Hu-1 (MN908947), UniProt P0DTC2). Kind of test: BLI; Octet RED 96e; anti-RBD IgGs immobilised on AR2G biosensors, RBD as the analyte in serial dilutions; 1:1 global fitting model. The following applies: both partners purified.
Test [7] addresses SARS-CoV-2 spike on intact virus (SARS-CoV-2/human/AUS/VIC01/2020) (SARS-CoV-2, isolate …, strain). The test is described as follows: cell-based or functional assay.

B1: mAb 75 (IgG) (antibody, V domains shown)
VH: QVQLVESGGGVVQPGRSLRLSCAASGFTFNNYPLHWVRQAPGKGPEWVAVISQDGGNKYYVDSVKGRFTISRDNSKNTLYLQMNNLRAEDTALYYCARDVVVVVAARNHYYNGMDVWGQGTTVTVSS
VL: DIQLTQSPSSVSASVGDRVTITCRASQGISSWLAWYQQKPGKAPKLLIYAVSSLQSGVPSRFSGSGSGTDFTLTISSLQPEDFATYYCQQAKSFPFTFGPGTKVEIK
notes: IgG1
With B1, the binding result in test [1] is on record as “binds”.

B2: Fab75 (Fab, V domains shown)
VH: B1 VH
VL: B1 VL
notes: also called mAb 75
On to B2, for which the binding result in test [2] was “binds”.

B3: Fab 316 (Fab, V domains shown)
VH: not shown
VL: QAVLTQPPSASGSPGQSVTISCTGTSSDVGGYNYVSWYQQHPGKAPKLMIYEVSKRPSGVPDRFSGSKSGNTASLTVSGLQAEDEADYYCSSYAGSNHWVFGGGTKLTVL
In test [3], B3 showed a dissociation rate constant (koff) of 0.00071 s⁻¹ and a kon of 350000 M⁻¹ s⁻¹. For the same molecule, in test [4], the “Table S7: Neutralization IC50 (nM), FRNT of authentic SARS-CoV-2, Fab” value (from here on “Table S7: Neutralization IC50 (nM), FRNT … Fab”) is 27.6 nM. In test [5], binding was characterised by a dissociation constant (Kd) of 8.76 nM.

B4: mAb 316 (antibody, V domains shown)
VH: not shown
VL: B3 VL
As to B4, the affinity in test [6], expressed as Kd, was 2 nM.

B5: mAb 316, de-glycosylated (antibody, V domains shown)
VH: not shown
VL: B3 VL
With B5, the dissociation constant Kd in test [6] came out at 1 nM.

B6: mAb 384 (IgG) (antibody, V domains shown)
VH: EVQLVESGGGLVKPGESLRLSCAASGFTFSDYYMTWIRQAPGKGLEWVSYIRSSGHTIYYADSVKGRFTISRDNAKNSLYLQMNSLRVEDTAVYYCARGGVLRFLEWPLNAFDIWGQGTMVTVSS
VL: DIQLTQSPSSLSASVGDRVTITCRASQGISNYLAWYQQKPGKVPKLLIYAASTLQSGVPSRFSGSGSGTDFTLTISSLQPEDVATYYCQKYNNALGTFGQGTKVEIK
notes: IgG1
In the case of B6, the binding result in test [1] is “binds”.

B7: Fab384 (Fab, V domains shown)
VH: B6 VH
VL: B6 VL
Consider B7, for which the binding result in test [2] was “binds”.

B8: Fab 88 (Fab, V domains shown)
VH: QLQLQESGPGLVKPSQTLSLTCTVSGGSISSGSYNWTWIRQPAGKGLEWIGRIYNSGSTNYNPSLKSRVTISVDTSKNQLSLKVRSVTAADTAVYYCARHCSGGTCYPKYYYGMDVWGQGTTVTVSS
VL: QSALTQPPSVSEAPRQRVTISCSGSSSNIGNNAVNWYQQFPGKAPKLLIYYDDLLPSGVSDRFSGSKSGTSASLAISGVQSEDEADYYCAAWDDSLNVVVFGGGTKLTVL
notes: also called 88 Fab
Regarding B8, in test [4], the “Table S7: Neutralization IC50 (nM), FRNT … Fab” value was 6.95 nM. In test [5], this molecule came in with a Kd of 1.21 nM.

B9: chimeric mAb 253H165L (IgG) (antibody, V domains shown)
VH: not shown
VL: DIVMTQSPGTLSLSPGERATLSCRASQSVRSSYLAWYQQKPGQAPRLLIYGASRRGTGIPDRFSGSGSGTDFTLTISRLEPEDFAVYYCQQYGSSPWTFGQGTKVEIK
For B9, the “Table S7: Neutralization IC50 (nM), FRNT of authentic SARS-CoV-2” value in test [4] came to 0.03 nM. In addition, binding in test [5] was characterised by a dissociation constant (Kd) of 0.09 nM.

B10: chimeric Fab 253H165L (Fab, V domains shown)
VH: not shown
VL: B9 VL
In the case of B10, the “Table S7: Neutralization IC50 (nM), FRNT … Fab” value in test [4] turned out to be 5.22 nM. Further, binding in test [5] was characterised by a dissociation constant (Kd) of 5.02 nM.

B11: mAb 159 (antibody, V domains shown)
VH: EVQLVESGGGVVQPGRSLRLSCAASGFTFSSYGMHWVRQAPGKGLEWVALISYDGGNRYYADSVKGRFTISRDNSKNTLYLQMNRLRAEDTAMYYCAKDRDDGWDWYYFMDVWGKGTTVTVSS
VL: DIQLTQSPGTLSLSPGERATLSCRASQSISGNYLAWYQHKPGQAPRLLIYGASTRATGIPDRFSGSGSGTDFTLTISRLEPEDFAVYYCQQYGSSYTFGQGTKVEIK
In the case of B11, the “FRNT, neutralisation of authentic SARS-CoV-2 on Vero cells, IC50” value in test [7] worked out at 5 ng/mL.

B12: Fab 40 (Fab, V domains shown)
VH: QVQLVESGGGLVQPGGSLRLSCAVSGFTVSRNYMSWVRQAPGKGLEWVSLIYSGGSTFYADSVKGRFTISRDNSKNTLYLQMNSLRAEDTAVYYCARDLFHRSGYHDYWGQGTLVTVSS
VL: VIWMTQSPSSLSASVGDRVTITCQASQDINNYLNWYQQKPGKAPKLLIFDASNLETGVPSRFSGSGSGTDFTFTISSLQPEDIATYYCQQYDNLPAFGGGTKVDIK
notes: also called 40 Fab
With B12, the “Table S7: Neutralization IC50 (nM), FRNT … Fab” value in test [4] came out at 45.7 nM. In test [5], the dissociation constant Kd came out at 1.23 nM.

B13: Fab 150 (Fab, V domains shown)
VH: QVQLVESGGGLIQPGGSLRLSCAASGVTVSSNYMSWVRQAPGKGLEWVSIIYSGGTTYYADSVKGRFTISRDSSMNTLYLQMNSLRAEDTAVYYCARDLMVYGIDVWGQGTTVTVSS
VL: EIVMTQSPSSLSASVGDRVTITCRASQGISSYLAWYQQKPGKAPKLLIYAASTLQSGVPSRFSGSGSGTDFTLTISSLQPEDFATYYCQQLDSYPPGYTFGQGTKVDIK
On to B13, for which, in test [4], the “Table S7: Neutralization IC50 (nM), FRNT … Fab” value was determined as 0.61 nM. For the same molecule, in test [5], binding was characterised by a dissociation constant (Kd) of 0.75 nM.

B14: Fab 158 (Fab, V domains shown)
VH: EVQLLESGGDLIQPGGSLRLSCAASGVTVSSNYMSWVRQAPGKGLEWVSIIYPGGSTFYADSVKGRFTISRDNSKNTLYLQMHSLRAEDTAVYYCARDLGSGDMDVWGKGTTVTVSS
VL: DIVMTQSPSFLSASVGDRVTITCRASQGISSYLAWYQQKPGKAPKLLIQAASTLQSGVPSRFSGSGSGTEFTLTISSLQPEDFATYYCQQLNSYRYTFGQGTKVEIK
Consider B14, for which, in test [3], the dissociation constant (Kd) is 0.7 nM, the koff came out at 8.4e-05 s⁻¹ and the kon was determined as 120000 M⁻¹ s⁻¹. The “Table S7: Neutralization IC50 (nM), FRNT … Fab” value in test [4] came out at 4.12 nM. Also, binding in test [5] was put at a Kd of 3.73 nM.

B15: Strep-tagged Fab 158 (Fab, V domains shown)
VH: B14 VH
VL: B14 VL
notes: also called Fab58 (as printed in the crystallization paragraph); source: HEK293T, transient transfection, purified (Strep-Tactin)
Regarding B15, the binding result in test [2] was “binds”.
